Key:
αvβ6 = αvβ6 (UniProt P06756); test: binding ELISA; murine secondary
[1] = molecular target: rhesus monkey αvβ6 integrin on 4MBr5 cells (rhesus monkey) (UniProt H9ETF2); test: flow cytometry titration on 4MBr5 cells; given as ED50
[2] = molecular target: human αvβ6 integrin on cells (human) (UniProt P06756); test: cell adhesion assay: Detroit562 cells to LAP, inhibition by m3G9
[3] = molecular target: African green monkey αvβ6 integrin on 12MBr6 cells (African green monkey); test: flow cytometry titration on 12MBr6 cells; given as ED50; the text gives the cell lines the other way round than the table
[4] = molecular target: rhesus monkey αvβ6 integrin on 4MBr5 cells (rhesus monkey) (UniProt H9ETF2); test: cell adhesion assay: 4MBr5 cells to LAP; the text gives the cell lines the other way round than the table
[5] = molecular target: African green monkey αvβ6 integrin on 12MBr6 cells (African green monkey); test: flow cytometry titration on 12MBr6 cells; given as ED50
[6] = molecular target: rhesus monkey αvβ6 integrin on 4MBr5 cells (rhesus monkey) (UniProt H9ETF2); test: cell adhesion assay: labelled 4MBr5 cells on LAP-coated plate, inhibition by m3G9
[7] = molecular target: human αvβ6 integrin on cells (human) (UniProt P06756); test: cell adhesion assay: SW480β6 cells to LAP, inhibition by m3G9
[8] = molecular target: African green monkey αvβ6 integrin on 12MBr6 cells (African green monkey); test: cell adhesion assay: 12MBr6 cells to LAP; the text gives the cell lines the other way round than the table
[9] = molecular target: human αvβ6 integrin on cells (human) (UniProt P06756); test: cell adhesion assay: SCC-14 cells to LAP, inhibition by m3G9
[10] = molecular target: rhesus monkey αvβ6 integrin on 4MBr5 cells (rhesus monkey) (UniProt H9ETF2); test: flow cytometry titration on 4MBr5 cells; given as ED50; the text gives the cell lines the other way round than the table
[11] = molecular target: rhesus monkey αvβ6 integrin on 4MBr5 cells (rhesus monkey) (UniProt H9ETF2); test: cell-based or functional assay
[12] = molecular target: human αvβ6 integrin on cells (human) (UniProt P06756); test: cell-based or functional assay
[13] = molecular target: African green monkey αvβ6 integrin on 12MBr6 cells (African green monkey); test: cell adhesion assay: labelled 12MBr6 cells on LAP-coated plate, inhibition by m3G9

Sequence of human αvβ6 integrin on cells (human) (P06756 31-1048, chain 1 of 2): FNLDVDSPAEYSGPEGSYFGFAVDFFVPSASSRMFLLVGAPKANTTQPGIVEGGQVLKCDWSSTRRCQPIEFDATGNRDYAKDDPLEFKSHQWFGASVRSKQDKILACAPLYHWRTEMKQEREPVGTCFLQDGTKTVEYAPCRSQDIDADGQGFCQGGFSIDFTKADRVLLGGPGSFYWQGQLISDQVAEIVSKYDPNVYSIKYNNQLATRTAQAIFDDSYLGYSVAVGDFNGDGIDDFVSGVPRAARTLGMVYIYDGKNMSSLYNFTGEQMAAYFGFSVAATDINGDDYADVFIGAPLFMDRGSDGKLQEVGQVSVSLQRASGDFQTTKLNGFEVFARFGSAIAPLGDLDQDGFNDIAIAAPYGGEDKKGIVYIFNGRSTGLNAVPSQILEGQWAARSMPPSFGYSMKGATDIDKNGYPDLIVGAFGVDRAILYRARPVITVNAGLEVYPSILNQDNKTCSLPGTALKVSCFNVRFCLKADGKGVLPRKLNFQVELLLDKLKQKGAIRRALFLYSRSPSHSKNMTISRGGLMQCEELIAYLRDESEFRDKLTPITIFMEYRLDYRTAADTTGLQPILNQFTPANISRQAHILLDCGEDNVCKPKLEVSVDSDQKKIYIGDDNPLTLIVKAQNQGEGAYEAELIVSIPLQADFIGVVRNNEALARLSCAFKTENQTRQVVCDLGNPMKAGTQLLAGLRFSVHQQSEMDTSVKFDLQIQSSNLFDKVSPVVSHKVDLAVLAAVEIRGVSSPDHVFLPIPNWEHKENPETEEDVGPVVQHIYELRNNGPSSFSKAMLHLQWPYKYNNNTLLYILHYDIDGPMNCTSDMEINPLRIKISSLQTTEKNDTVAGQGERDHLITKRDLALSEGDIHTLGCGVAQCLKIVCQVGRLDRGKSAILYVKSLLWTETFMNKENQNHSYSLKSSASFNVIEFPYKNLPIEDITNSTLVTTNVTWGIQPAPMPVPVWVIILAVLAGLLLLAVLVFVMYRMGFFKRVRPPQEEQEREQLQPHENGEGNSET
Sequence of human αvβ6 integrin on cells (human) (P18564 22-788, chain 2 of 2, further chain): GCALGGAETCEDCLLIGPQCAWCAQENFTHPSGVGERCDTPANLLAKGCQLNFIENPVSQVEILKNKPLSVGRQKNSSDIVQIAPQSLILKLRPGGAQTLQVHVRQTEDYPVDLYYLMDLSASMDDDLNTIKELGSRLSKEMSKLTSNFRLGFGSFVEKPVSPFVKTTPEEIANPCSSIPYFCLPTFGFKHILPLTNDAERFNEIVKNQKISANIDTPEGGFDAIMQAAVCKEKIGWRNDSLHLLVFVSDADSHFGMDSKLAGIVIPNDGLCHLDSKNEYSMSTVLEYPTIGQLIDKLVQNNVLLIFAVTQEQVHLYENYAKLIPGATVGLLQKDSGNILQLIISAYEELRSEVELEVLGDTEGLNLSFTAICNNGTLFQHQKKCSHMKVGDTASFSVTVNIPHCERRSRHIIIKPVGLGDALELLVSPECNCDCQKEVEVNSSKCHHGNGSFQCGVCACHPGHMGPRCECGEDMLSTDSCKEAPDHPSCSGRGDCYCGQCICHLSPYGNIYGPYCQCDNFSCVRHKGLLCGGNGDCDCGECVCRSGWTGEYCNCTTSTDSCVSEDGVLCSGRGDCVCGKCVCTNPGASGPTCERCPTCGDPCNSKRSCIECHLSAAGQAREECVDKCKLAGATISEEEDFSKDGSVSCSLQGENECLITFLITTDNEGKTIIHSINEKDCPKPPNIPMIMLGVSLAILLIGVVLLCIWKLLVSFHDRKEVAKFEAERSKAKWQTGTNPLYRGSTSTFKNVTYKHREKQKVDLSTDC
Sequence of αvβ6 (P06756 31-992, chain 1 of 2): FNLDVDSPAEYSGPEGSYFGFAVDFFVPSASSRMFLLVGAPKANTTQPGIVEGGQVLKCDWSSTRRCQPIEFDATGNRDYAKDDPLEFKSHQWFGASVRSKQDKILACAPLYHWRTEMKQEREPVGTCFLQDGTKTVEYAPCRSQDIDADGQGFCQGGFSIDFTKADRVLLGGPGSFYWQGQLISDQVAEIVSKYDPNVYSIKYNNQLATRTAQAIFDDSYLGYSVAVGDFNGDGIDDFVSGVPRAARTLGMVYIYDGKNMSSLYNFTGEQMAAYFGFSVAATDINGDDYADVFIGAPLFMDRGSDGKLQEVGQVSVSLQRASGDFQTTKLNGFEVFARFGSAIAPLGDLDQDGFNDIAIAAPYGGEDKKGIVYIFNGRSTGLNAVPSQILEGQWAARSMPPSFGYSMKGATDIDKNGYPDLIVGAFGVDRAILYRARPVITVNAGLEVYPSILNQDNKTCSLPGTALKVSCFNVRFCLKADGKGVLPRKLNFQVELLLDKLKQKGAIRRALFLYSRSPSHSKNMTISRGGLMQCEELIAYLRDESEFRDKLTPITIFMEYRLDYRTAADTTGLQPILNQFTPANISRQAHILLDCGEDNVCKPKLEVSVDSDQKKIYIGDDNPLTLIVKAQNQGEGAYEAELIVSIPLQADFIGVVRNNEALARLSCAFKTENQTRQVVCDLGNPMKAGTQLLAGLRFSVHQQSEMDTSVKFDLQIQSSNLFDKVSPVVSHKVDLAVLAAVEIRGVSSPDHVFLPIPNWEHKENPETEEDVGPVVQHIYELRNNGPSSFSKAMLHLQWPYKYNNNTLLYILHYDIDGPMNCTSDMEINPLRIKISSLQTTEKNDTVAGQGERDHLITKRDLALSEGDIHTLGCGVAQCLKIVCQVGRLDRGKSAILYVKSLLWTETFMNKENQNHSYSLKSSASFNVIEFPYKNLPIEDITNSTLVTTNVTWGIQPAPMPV
Sequence of αvβ6 (P18564 22-709, chain 2 of 2, further chain): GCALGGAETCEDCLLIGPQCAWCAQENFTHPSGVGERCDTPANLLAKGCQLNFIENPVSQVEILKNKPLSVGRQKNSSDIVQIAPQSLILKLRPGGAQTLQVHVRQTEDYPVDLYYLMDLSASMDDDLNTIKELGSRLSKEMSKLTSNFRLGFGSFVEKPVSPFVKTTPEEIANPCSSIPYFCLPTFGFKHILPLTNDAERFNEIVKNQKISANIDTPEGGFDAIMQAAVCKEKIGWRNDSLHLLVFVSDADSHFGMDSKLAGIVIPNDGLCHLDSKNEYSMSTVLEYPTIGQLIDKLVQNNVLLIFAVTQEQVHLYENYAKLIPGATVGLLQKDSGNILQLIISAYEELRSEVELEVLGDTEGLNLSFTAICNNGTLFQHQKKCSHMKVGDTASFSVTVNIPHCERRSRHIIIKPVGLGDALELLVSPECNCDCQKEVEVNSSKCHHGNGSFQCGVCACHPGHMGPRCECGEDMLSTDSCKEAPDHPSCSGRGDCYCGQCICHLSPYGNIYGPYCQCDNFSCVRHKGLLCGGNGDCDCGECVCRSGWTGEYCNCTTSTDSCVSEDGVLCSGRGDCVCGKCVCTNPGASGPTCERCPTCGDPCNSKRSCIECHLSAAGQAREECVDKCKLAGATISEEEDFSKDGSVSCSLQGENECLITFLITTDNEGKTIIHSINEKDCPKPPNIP

EC50 (αvβ6) | EC50 [1] | IC50 [2] | EC50 [3] | IC50 [4] | EC50 [5] | IC50 [6] | IC50 [7] | IC50 [8] | IC50 [9] | EC50 [10] | Coculture IC50, µg/mL (TGFβ activation by 4MBr5 cells, TMLC luciferase reporter cells) [11] | IC50, coculture assay (4MBr5) [11] | Coculture IC50, µg/mL (TGFβ activation by SW480β6 cells, TMLC luciferase reporter cells) [12] | IC50, coculture assay (SW480β6) [12] | IC50 [13] | Substance
0.021 µg/mL |  |  |  |  |  |  |  |  |  |  |  |  |  |  |  | m3G9 (murine secondary)
 | 0.3 µg/mL | 0.04 µg/mL | 0.3 µg/mL | 0.29 µg/mL | 0.38 µg/mL | 0.22 µg/mL | 0.03 µg/mL | 0.22 µg/mL | 0.16 µg/mL | 0.38 µg/mL | 0.31 µg/mL | 0.4 µg/mL | 0.37 µg/mL | 0.24 µg/mL | 0.29 µg/mL | murine monoclonal antibody 6.3G9

From patent US20110305629A1
